The record followed here is the nanobody polyreactivity screen of Harvey et al. (2022).

This series can be described thus: yeast display, Sf9 membrane polyspecificity reagent, FACS + sequencing; frameworks hold sequencing errors. The essentials:
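In a synthetic yeast display library (Saccharomyces cerevisiae BJ5465), nanobody expression was induced with galactose for 36–48 hours. FACS gates were set low and high (top ~1%) using anti-HA fluorescence for expression and streptavidin fluorescence for binding of the Sf9 membrane reagent. Each polyreactivity label is drawn from the gate of origin.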
In the case of “QVQLVESGVGLVQAGGSLRLSSAASGRTFPSNNMGWYRQAPGKERELVAAISKNGGSTYYADSVKGRFTISRDNAMNTVYLQMNRLKPEDTAVYYWAATGVSSKRLASQRKLDYWGQGSQVTVSS”, the “polyreactivity (PSR sort gate)” value was “high polyreactivity”.

As to “QVQLVESGVGLVQAGGSLRLSSDASGSIFGTYAMGWYRQAPGKERELVAAITGNGGRTYYADSVKGRFTISRDNAKNTVYLQMHSLKAEDTAVYSCAISSSRGGFYYWGQGNQVTVSS”, the “polyreactivity (PSR sort gate)” value was “high polyreactivity”.

Take “QVQLVESGVGLVQAGGSLSLSCAASGRLFNYYAMGWYRQAPGKERELVAAISSSGGRTYYADSVKGRFTISRDNAKNTVYLQMNCLKPEDTAVFYCAAYDSLRYSTYDYWGQGTQVTVSS”: the “polyreactivity (PSR sort gate)” value is given as “high polyreactivity”.

Consider “QVQLVESGVGLVQAGGTLRISCAASGRISRGYAMGWYRQAPGKERELVAAISRRGDSTYYADSVKGRFTISRDNAKYTVYLQMNSLKPEDTAVYYCAARNGGRYAAGLDYWGQGTHVTVSS”, for which the “polyreactivity (PSR sort gate)” value is listed as “high polyreactivity”.

With “QVQLVESGVGLVQAGGTLRLSCAPSGSTFSVYAMGWYRQPPGKERELVADITRGGSTYADSVKGRFTISRDNAKITVYLQMNSLKPEDTAVYYCAGEEVTPYPLYWSTREYDYWGQGTQVTVSS”, the “polyreactivity (PSR sort gate)” value is listed as “low polyreactivity”.

On to “QVQLVESGVGLVQAGVSLRISCAASGSIFDTYAMGWYRQAPGKERELVAAIRWTGGSTYYADSVKGRFTISRDNAKNTVYLQMNSLKREDTAVYYCATPSYGRPGFGYWGQGTQVTVSS”, for which the “polyreactivity (PSR sort gate)” value is “low polyreactivity”.

As to “QVQLVESGVGLVQARGSLPLSCAASGSIFYYYVMGWYRQAPGKERELVAAIRSSGTSTYYADSVKGRFTISRDNAKNTVYLQRNSLKPEDTAVYYCNRARSSSRYDYWGQGTQVTVSS”, the “polyreactivity (PSR sort gate)” value is given as “low polyreactivity”.

For “QVQLVESGVGLVQARGSLRISCAASGFIFDLYAMGWYIQAHGKERELVAAITTSGGTTYYADSVKGRFTISRDNAKNTVYLQMNSLKPEDTAVYYCNALRRYVSVRPTKSDYWGQGTQVTVSS”, the “polyreactivity (PSR sort gate)” value is recorded as “high polyreactivity”.

Consider “QVQLVESGVGLVQARGSLRLSCAASGVISSINAVGWNRLAAAKEWELVAGIRARGTSPYYADSVKGRFTISRDNAKNTVYLQMNCLKPEDTAVYDCAADVDAGRHYGYWGQGTQVTVSS”, for which the “polyreactivity (PSR sort gate)” value is “low polyreactivity”.

As to “QVQLVESGVGLVQARGSLRLSSASSGSILSTYAMGCYRQAPGKERELVASISSNAGSTYYADSVKGRFTISRDNAKNTVYLQMNSLKPEDTAVYYCNVKYKYYSPNYDYWGEGTQVTVSS”, the “polyreactivity (PSR sort gate)” value is “low polyreactivity”.

“QVQLVESGVGLVQAVGSLRLSCAASGIIFPYYPMGWYRQAPGKERELVAAISTGGSTYYADSVKGRFTISRDNAKNTVYLQMNSLKPEDTAVYFCAARVARYRSTKRYDYWGQGTQVSVSS”: the “polyreactivity (PSR sort gate)” value was “high polyreactivity”.

With “QVQLVESGVGLVQAVGSLRLSCAASGRIFPAYVMGWYRQAPGKERELVATIDNGGGTYYADSVKGRFTISCDNAKYTVYLQMNSLKPEDTAVYYCARDRHVRWGLKRDYWGQGTQVTVSS”, the “polyreactivity (PSR sort gate)” value is “low polyreactivity”.

Regarding “QVQLVESGVGLYQAGGSLRLSCAASGSIFEENAMVWYRQAPGKEMELVAAITIGGRTNYADSVKGRFTISRDNAKNTVYLEMNSLKPEDTAVYYCASDLSSIKYWLFWTRYYYWGQGTQVNVSS”, the “polyreactivity (PSR sort gate)” value is given as “low polyreactivity”.

With “QVQLVESGVRLVQAGGSLRLSCASSAITFGKNAMGWYRQAPGTESELVAAITRDGGTNYADSVKGRFTISRDNAMNTVYLHMNILKPEDTAVYYCAKRAYIYYGRYDYWGQGTQVTVSS”, the “polyreactivity (PSR sort gate)” value was “low polyreactivity”.

For “QVQLVESGVRLVQAGGSLRLTCAASGNTFVAYAMGWYRQAPGKERDLVAGITRGGTTYYADSVKGRFTISRDNAKNSVYLQMNSLKPEDTAEYDCAARLGYRYNYWGQGTQVTVSS”, the “polyreactivity (PSR sort gate)” value was “high polyreactivity”.

For the sequence “QVQLVESGVVLVQAGGSLRLSCAASGYTFRVYTMGWYRQAPGKERELVAAISRRGSRTYYADSVKGRFTISRDYAKNTVYLQKNSLKPEDTAVYYCAAGIPYPDDYWGLGTQVTVSS”, the “polyreactivity (PSR sort gate)” value was “high polyreactivity”.

Take “QVQLVESLGGLVQAGGSLRLSCAASGFTFTNYAMGWYRQAPGKERELVAAINSSGSTNYADSVKGRFTISRDNAKNTVYLQMNSLKPEDTAVYYCAVDYSYWVHGFWDDYDYWGQGTQVTVSS”: the “polyreactivity (PSR sort gate)” value was “low polyreactivity”.

On to “QVQLVESLGGLVQAGGSLRLSFAASGFIFAKYAIGWYRKAAGKERELVAAITSGGSTNYADSVKGRFTISRDNAKNTVFLQMNSLKPEDTAVYYCNRGFDWCYRYRHYDYCGQGTQVTVSS”, for which the “polyreactivity (PSR sort gate)” value is “low polyreactivity”.

For “QVQLVESPGRLVQAGGSLRLSCDPTGRTFKIYALGSSRQAPGKESELVAAIRRSGGNTYYADSVKGRFTISRDNAKNTVYLQMNSLKPEDTAVYYCAVGRGSLRGRTDGGYWGQGTQVTVSS”, the “polyreactivity (PSR sort gate)” value was “high polyreactivity”.

On to “QVQLVESRGALVQAGGSLRLSCAASGPIFDSYAMGWYRQATGKERELVATISRDSASTYYADSVKGRLTISRDNAKNTVYLQMNSLNPADTAVYYCSAGGSSSWAYNYWGHGTQVTVSS”, for which the “polyreactivity (PSR sort gate)” value is recorded as “low polyreactivity”.

Consider “QVQLVESRGCLVQAGGSLRLSCAASGSIFVNNAMGWYRPAPGYERELCAAITSGTRTNYADSVKGRFTISRDNAKNTVYLQMNSLKPEDTAVYYCATESAQYSWYYPGHPGYGYWGQGSQVTVSS”, for which the “polyreactivity (PSR sort gate)” value is listed as “low polyreactivity”.

Regarding “QVQLVESRGCLVQAGGSLRLSCAASGSISIKNAMGWYRQAPGKERELVATITYNGGSTYYADSVKGRFTISRDNAKNTVYLQMNSLKPEDTAVYYCARDAFEPYDVGEYYYWGQGTQVTVSS”, the “polyreactivity (PSR sort gate)” value was “low polyreactivity”.

As to “QVQLVESRGGFVQARCSLRLSCDASGRIFYYYGMGWYRQAPGKERELVAAITRNTGRTYYADSVKGRFTISRDNAKNTVYLQMNSLKPEDSSVYYFARDRRTWSPYTRAYRRNDYWVQGTQVTVSS”, the “polyreactivity (PSR sort gate)” value is given as “high polyreactivity”.

In the case of “QVQLVESRGGLVHAGGSLRLSCAASGSIFQSYYMGWYRQAPGKERELVAAISWSGSTTYYADSVKGRFTISRDNAKNTVYLQMNSLKPEDTAVYYCAVDSNPPDWWAVIYGYWGQGTQVTVSS”, the “polyreactivity (PSR sort gate)” value is given as “low polyreactivity”.

Take “QVQLVESRGGLVQAGGSHRLSCAASGSIFGANAMGWYRQAPGKERELVAAITSGSGTNYADSVKGRFTISRDNAKNTVYLQMISLNPEDTAVYYCAAVVLYQGRYDYWGQGTQVTVSS”: the “polyreactivity (PSR sort gate)” value is given as “low polyreactivity”.

In the case of “QVQLVESRGGLVQAGGSLPLSCAASGSIFSRNALGWYRQAPGKERELVAAITWSGGSTYYADSVKGRFTISRDNAKNTVYLQMNSLKAEDTAVYYCNAKRSSRIKQLEYDYWGKGTQVTVSS”, the “polyreactivity (PSR sort gate)” value is on record as “high polyreactivity”.

For “QVQLVESRGGLVQAGGSLRLRCAASGFILDTYGIVWYRQAPGKERELVAAIYQSDVSTYYADSVKGRFTISRDNAKNTVYLQMNSLKPEDTAVYYCAADRGVLRWFCQVLYDYWGQGTQVTVSS”, the “polyreactivity (PSR sort gate)” value is “low polyreactivity”.

Turning to “QVQLVESRGGLVQAGGSLRLSCAASGFIFGFYALGWYRQEPGTEMELVAAITWDGGSTYYADSVKGRFTISRDNAKNTVYLQMNSLKPEDTAVYYCAAYFQYQDVDYDYWGQGTQVTVSS”, the “polyreactivity (PSR sort gate)” value is on record as “high polyreactivity”.

With “QVQLVESRGGLVQAGGSLRLSCAASGFIFYWNAMGWYRQAPGKEREFVATITWSGGSTYYADSVKGRFTISRDNAKNTVYLQMNSLKPEDTAVYYCNADVTWEDDYCGQGTQVTVSS”, the “polyreactivity (PSR sort gate)” value is “low polyreactivity”.

For “QVQLVESRGGLVQAGGSLRLSCAASGFTFWDNVIGWYRQAPGKERELVAAISNSGGRTYYADSVKGRFTISRDNEKNTVYLQMNILKPEDTAVYYCARYGRRHGYPILDYWGQGTQVTVSS”, the “polyreactivity (PSR sort gate)” value is “high polyreactivity”.
